Data on 2 molecules can be found in US20030228627, “Assay for p53 function in cells” (published 2003).

The target of data set [1] is T1, p53 (full-length, Flag-tagged) (Homo sapiens, UniProt P04637 P04637:1-393). The data set can be described thus: EMSA; p53 with or without acetylation by p300; site described as p53 5' binding site, gel outcome not shown in the text. The settings on record: tags: Flag, expressed in Sf9 cells; label: 32P end label.
In data set [2] the target is T1, p53 (full-length, Flag-tagged). The data set can be described thus: footprint; DNase I footprinting on p21 promoter as chromatin or naked DNA; described as p53 3' binding site, outcome not shown in the text. The settings on record: tags: Flag, expressed in Sf9 cells.

B1: p21 promoter p53 5' site 25 bp oligonucleotide (dsDNA)
DNA 1: CAGGAACATGTCCCAACATGTTGAA
DNA 2: TTCAACATGTTGGGACATGTTCCTG
For B1, in data set [1], the binding result was “binds”.

B2: p21 promoter p53 3' site (dsDNA)
DNA 1: AGACTGGGCATGTCTGGGCA
DNA 2: TGCCCAGACATGCCCAGTCT
Turning to B2, the binding result in data set [2] is recorded as “binds”.
